Assays:
[1] = target: Thiomicrospira Cas6-RT-Cas1 fusion protein (Thiomicrospira); test: cryo-EM structure
[2] = target: Thiomicrospira Cas2 (Thiomicrospira); test: cryo-EM structure

stoichiometry N [1]	stoichiometry N [2]	Substance
2	–	Thiomicrospira Cas6-RT-Cas1 fusion protein (enzyme)
–	2	Thiomicrospira Cas2 (natural protein)
